Measured values from paper PMC10413161.

Columns and labels:
[1] = biological target: human complement C1r, zymogen form (human) (UniProt P00736)
[2] = biological target: Borrelia hermsii strain HS1 FbpC C-terminal domain, residues 212-374 (Borrelia hermsii strain HS1); test: SPR; FbpC-C, FbpC-C R248A or FbpC-C H252A immobilised by amine coupling on a CMD200 chip (1138.2, 975.2, 1082 RU); zymogen or active C1r injected, single-cycle five-fold dilution series 0.16 to 100 nM; Biacore T200, 25 °C, 30 μl/min; HBS-T (10 mM Hepes pH 7.3, 140 mM NaCl, 0.005% Tween 20) with 5 mM CaCl2; kinetic fits, triplicate
[3] = biological target: Borrelia hermsii strain HS1 FbpC C-terminal domain, residues 212-374, R248A (Borrelia hermsii strain HS1); test: as above
[4] = biological target: Borrelia hermsii strain HS1 FbpC C-terminal domain, residues 212-374, H252A (Borrelia hermsii strain HS1); test: as above

Molecule | CP hemolysis of presensitized sheep erythrocytes (2% normal human serum), IC50 [1] | CP-specific complement ELISA (C4b deposition, 2% normal human serum), IC50 [1] | Kd [2] | koff [2] | kon [2] | Kd [3] | koff [3] | kon [3] | Kd [4] | koff [4] | kon [4]
Borrelia hermsii strain HS1 FbpC C-terminal domain, residues 212-374 (domain or fragment) | 320 nM | 8.6 nM | – | – | – | – | – | – | – | – | –
Borrelia hermsii strain HS1 FbpC C-terminal domain, residues 212-374, R248A (domain or fragment) | 1200 nM | 23 nM | – | – | – | – | – | – | – | – | –
Borrelia hermsii strain HS1 FbpC C-terminal domain, residues 212-374, H252A (domain or fragment) | – | 300 nM | – | – | – | – | – | – | – | – | –
human complement C1r, zymogen form (enzyme) SIPIPQKLFGEVTSPLFPKPYPNNFETTTVITVPTGYRVKLVFQQFDLEPSEGCFYDYVKISADKKSLGRFCGQLGSPLGNPPGKKEFMSQGNKMLLTFHTDFSNEENGTIMFYKGFLAYYQAVDLDECASRSKSGEEDPQPQCQHLCHNYVGGYFCSCRPGYELQEDTHSCQAECSSELYTEASGYISSLEYPRSYPPDLRCNYSIRVERGLTLHLKFLEPFDIDDHQQVHCPYDQLQIYANGKNIGEFCGKQRPPDLDTSSNAVDLLFFTDESGDSRGWKLRYTTEIIKCPQPKTLDEFTIIQNLQPQYQFRDYFIATCKQGYQLIEGNQVLHSFTAVCQDDGTWHRAMPRCKIKDCGQPRNLPNGDFRYTTTMGVNTYKARIQYYCHEPYYKMQTRAGSRESEQGVYTCTAQGIWKNEQKGEKIPRCLPVCGKPVNPVEQRQRIIGGQKAKMGNFPWQVFTNIHGRGGGALLGDRWILTAAHTLYPKEHEAQSNASLDVFLGHTNVEELMKLGNHPIRRVSVHPDYRQDESYNFEGDIALLELENSVTLGPNLLPICLPDNDTFYDLGLMGYVSGFGVMEEKIAHDLRFVRLPVANPQACENWLRGKNRMDVFSQNMFCAGHPSLKQDACQGDSGGVFAVRDPNTDRWVATGIVSWGIGCSRGYGFYTKVLNYVDWIKKEMEEED | – | – | 1.2 nM | 5.4e-05 s⁻¹ | 44000 M⁻¹ s⁻¹ | 13 nM | 0.00063 s⁻¹ | 69000 M⁻¹ s⁻¹ | – | – | –
human complement C1r, activated form (enzyme) SIPIPQKLFGEVTSPLFPKPYPNNFETTTVITVPTGYRVKLVFQQFDLEPSEGCFYDYVKISADKKSLGRFCGQLGSPLGNPPGKKEFMSQGNKMLLTFHTDFSNEENGTIMFYKGFLAYYQAVDLDECASRSKSGEEDPQPQCQHLCHNYVGGYFCSCRPGYELQEDTHSCQAECSSELYTEASGYISSLEYPRSYPPDLRCNYSIRVERGLTLHLKFLEPFDIDDHQQVHCPYDQLQIYANGKNIGEFCGKQRPPDLDTSSNAVDLLFFTDESGDSRGWKLRYTTEIIKCPQPKTLDEFTIIQNLQPQYQFRDYFIATCKQGYQLIEGNQVLHSFTAVCQDDGTWHRAMPRCKIKDCGQPRNLPNGDFRYTTTMGVNTYKARIQYYCHEPYYKMQTRAGSRESEQGVYTCTAQGIWKNEQKGEKIPRCLPVCGKPVNPVEQRQRIIGGQKAKMGNFPWQVFTNIHGRGGGALLGDRWILTAAHTLYPKEHEAQSNASLDVFLGHTNVEELMKLGNHPIRRVSVHPDYRQDESYNFEGDIALLELENSVTLGPNLLPICLPDNDTFYDLGLMGYVSGFGVMEEKIAHDLRFVRLPVANPQACENWLRGKNRMDVFSQNMFCAGHPSLKQDACQGDSGGVFAVRDPNTDRWVATGIVSWGIGCSRGYGFYTKVLNYVDWIKKEMEEED | – | – | 0.3 nM | 1.4e-05 s⁻¹ | 48000 M⁻¹ s⁻¹ | 0.19 nM | 9.4e-06 s⁻¹ | 45000 M⁻¹ s⁻¹ | 2.4 nM | 0.00012 s⁻¹ | 51000 M⁻¹ s⁻¹
